From PMC9304170, “Chloromethyl Glycosides as Versatile Synthons to Prepare Glycosyloxymethyl‐Prodrugs” (Chemistry (Weinheim an Der Bergstrasse, Germany), 2022) come the findings set out here.

Values joined by “and” are separate entries in the source; they are usually repeats but may differ in a detail not shown here. Equal entries are not always repeated.

Data set [1] has as its target T1, Abg (Agrobacterium Sp. β-glucosidase) (Agrobacterium sp., UniProt P12614).
T1 sequence (P12614 1-459): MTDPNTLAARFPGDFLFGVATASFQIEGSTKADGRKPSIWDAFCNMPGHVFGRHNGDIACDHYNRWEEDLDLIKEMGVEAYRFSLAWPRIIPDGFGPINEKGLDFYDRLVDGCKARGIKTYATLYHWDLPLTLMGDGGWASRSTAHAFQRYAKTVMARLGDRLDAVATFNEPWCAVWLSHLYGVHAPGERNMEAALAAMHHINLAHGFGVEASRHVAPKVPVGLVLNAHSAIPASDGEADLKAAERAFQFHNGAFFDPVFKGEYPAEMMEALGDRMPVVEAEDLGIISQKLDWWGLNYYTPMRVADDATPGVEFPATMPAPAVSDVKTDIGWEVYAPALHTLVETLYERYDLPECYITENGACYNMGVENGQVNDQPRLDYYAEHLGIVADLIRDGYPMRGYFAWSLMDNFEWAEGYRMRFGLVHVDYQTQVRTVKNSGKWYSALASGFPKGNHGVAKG
Kind of data set: Enzymatic conversion of glycoside-drug conjugates at 200 μM analyzed by HPLC. It counts as biochemical. Conditions: for Enzymatic hydrolysis by Abg (in words) / Product release: 37 °C; for Enzymatic hydrolysis by Abg (in words): HPLC; for Product release: 200 μM substrate, 50 mM phosphate buffer pH 6.8, Abg 0.1 U/mL.

Data set [2] has as its target T2, Agrobacterium Sp. β-glucosidase (Abg, GH1 family) (Agrobacterium sp., UniProt P12614).
T2 sequence (P12614 1-459): T1 sequence (P12614 1-459)
Kind of data set: Michaelis-Menten kinetics of enzymatic hydrolysis, release of 4-nitrophenol (absorbance at 405 nm). The format is biochemical. The following applies: transglycosylation suggested for rate enhancement. The method, then: (§1) Enzymatic reactions were performed in triplo at pH 6.8 (50 mM final concentration) containing 0.1 % bovine serum albumin at 37 °C.[25] Aliquots of 100 μL were taken at constant time periods and added to 100 μL aq. NaOH (0.1 M) in a 96‐well microtitre plate to quench the enzymatic reaction and ensure maximal absorption of sodium 4‐nitrophenolate as outlined in previous studies.[28] The initial rate (vo) was determined normalized on the ∼0.1 U/mL enzyme concentration and plotted against substrate concentration [S]. Non‐linear regression analysis based on 7–10 concentrations depending on the glycoside, was used to determine the Km and k cat values. k cat values were normalized based on the enzyme concentration. […]
(§2) Kinetic evaluation of 4- nitrophenyloxymethyl glycosides. Enzyme reactions were performed in triplicate. Substrate samples (final volume of 1 mL) were prepared by diluting carefully prepared substrate stock solutions with sodium phosphate buffer pH 6.8 (50 mM final concentration) containing 0.1% bovine serum albumin and milliQ to the desired concentration. The samples were equilibrated at 37 °C for at least 5 minutes before the enzyme in 50 mM buffer (2 U per ml, 50 uL) was added. Aliquots of 100 µL were taken at constant time periods and added to 100 µL aq. NaOH (0.1 M) in a 96 well microtiter plate to quench the enzymatic reaction. The absorbance was measured at 405 nm using a Tecan Spark M10 plate reader.
(§3) Negative assay controls contained no substrate or no enzyme. Rates of the enzymatic reactions were determined at 7 different substrate concentrations from 0.02 – 1.0 mM. Km and kcat values were determined by nonlinear regression analysis using Graphpad 5.0 (GraphPad Software, San Diego, California USA, www.graphpad.com) for fitting the data. Calibration samples at varying concentration (0.05 – 0.5 mM) were prepared similar to the substrate samples in the enzyme reactions by diluting a carefully prepared 4-nitrophenol stock solution with sodium phosphate buffer pH 6.8 (50 mM final concentration) containing 0.1% bovine serum albumin and milliQ to the desired concentration. […]
(§4) (T1 determined as 9.13 sec.) was used. Dynamic measurements were started by heating the sample in the NMR to 37 °C and recording a t0-spectrum. Subsequently Abg (V = 2.05 uL, 0.82 U, 1.64 U/mL) was added to the sample outside of the NMR. The sample was mixed by shaking and quickly reintroduced to the NMR.
(§5) The time of enzyme addition was recorded as t0. Spectra were recorded over an appropriate time- scale with the relaxation delay at 3*T1 of the internal standard.
(§6) In vivo experiments were performed at the company Charles Rivers (Den Bosch, The Netherlands) in accordance with Dutch law of animal experiments and under approval of the central committee of animal experiments (CCD). Relative and absolute bioavailability may be determined in different animal models and according to different protocols.
(§7) The following protocol is typical for determining bioavailability in female Beagle dogs. The animals were deprived from food over a time period of 8 h prior to administration and 2 h after administration of the test molecules. Water was supplied without limitation. On the study day, the animals received test molecule 10h […]
(§8) ethanol and 0.9% NaCl + 5% mannitol in water. Blood samples were collected from the jugular vein on the […]

Substrate in data set [3]: O=[N+]([O-])c1ccc(OCO[C@@H]2O[C@H](CO)[C@H](O)[C@H](O)[C@H]2O)cc1
The description is as above. The format is biochemical, Agrobacterium Sp. The following applies: other: 4-nitrophenyloxymethyl glycosides 5a-f, phosphate buffer pH 6.8, 0.1 % BSA, 37 °C, N.A: no activity. The method, then:
as §1, §2, §3, §4, §5, §6, §7, §8

Substrate in data set [4]: O=[N+]([O-])c1ccc(O[C@@H]2OC[C@H](O)[C@H](O)[C@H]2O)cc1
The data set is described as above. It counts as biochemical, Agrobacterium Sp. The following applies: other: 4-nitrophenyl glycosides 6a-f, phosphate buffer pH 6.8, 0.1 % BSA, 37 °C. The method, then: as §1, §2, §3, §4, §5, §6, §7, §8

Substrate in data set [5]: O=[N+]([O-])c1ccc(O[C@@H]2OC[C@@H](O)[C@H](O)[C@H]2O)cc1
Described as above. The format is biochemical, Agrobacterium Sp. The following applies: other: 4-nitrophenyl glycosides 6a-f, phosphate buffer pH 6.8, 0.1 % BSA, 37 °C. The method, then: as §1, §2, §3, §4, §5, §6, §7, §8

Substrate in data set [6]: C[C@H]1O[C@@H](Oc2ccc([N+](=O)[O-])cc2)[C@H](O)[C@@H](O)[C@H]1O
The data set is described as above. The format is biochemical, Agrobacterium Sp. Conditions: other: 4-nitrophenyl glycosides 6a-f, phosphate buffer pH 6.8, 0.1 % BSA, 37 °C. The method, then: as §1, §2, §3, §4, §5, §6, §7, §8

Substrate in data set [7]: O=[N+]([O-])c1ccc(O[C@@H]2O[C@H](CO)[C@@H](O)[C@H](O)[C@H]2O)cc1
The description is as above. The format is biochemical, Agrobacterium Sp. Conditions: other: 4-nitrophenyl glycosides 6a-f, phosphate buffer pH 6.8, 0.1 % BSA, 37 °C. The method, then: as §1, §2, §3, §4, §5, §6, §7, §8

Substrate in data set [8]: C[C@H]1O[C@@H](OCOc2ccc([N+](=O)[O-])cc2)[C@H](O)[C@@H](O)[C@H]1O
The data set is described as above. The following applies: other: 4-nitrophenyloxymethyl glycosides 5a-f, phosphate buffer pH 6.8, 0.1 % BSA, 37 °C, N.A: no activity. It counts as biochemical, Agrobacterium Sp. The method, then: as §1, §2, §3, §4, §5, §6, §7, §8

Substrate in data set [9]: O=[N+]([O-])c1ccc(OCO[C@@H]2O[C@H](CO)[C@@H](O)[C@H](O)[C@H]2O)cc1
Described as above. It counts as biochemical, Agrobacterium Sp. Conditions: other: 4-nitrophenyloxymethyl glycosides 5a-f, phosphate buffer pH 6.8, 0.1 % BSA, 37 °C, N.A: no activity. The method, then: as §1, §2, §3, §4, §5, §6, §7, §8

Substrate in data set [10]: C[C@H]1O[C@@H](Oc2ccc([N+](=O)[O-])cc2)[C@H](O)[C@@H](O)[C@@H]1O
The description is as above. The format is biochemical, Agrobacterium Sp. The following applies: other: 4-nitrophenyl glycosides 6a-f, phosphate buffer pH 6.8, 0.1 % BSA, 37 °C. The method, then:
as §1, §2, §3, §4, §5, §6, §7, §8

Substrate in data set [11]: O=[N+]([O-])c1ccc(O[C@@H]2O[C@H](CO)[C@H](O)[C@H](O)[C@H]2O)cc1
The description is as above. The format is biochemical, Agrobacterium Sp. The following applies: other: 4-nitrophenyl glycosides 6a-f, phosphate buffer pH 6.8, 0.1 % BSA, 37 °C. The method, then: as §1, §2, §3, §4, §5, §6, §7, §8

Substrate in data set [12]: C[C@H]1O[C@@H](OCOc2ccc([N+](=O)[O-])cc2)[C@H](O)[C@@H](O)[C@@H]1O
The data set is described as above. Conditions: other: 4-nitrophenyloxymethyl glycosides 5a-f, phosphate buffer pH 6.8, 0.1 % BSA, 37 °C, N.A: no activity. It counts as biochemical, Agrobacterium Sp. The method, then: as §1, §2, §3, §4, §5, §6, §7, §8

Where [13] appears, read: 200 μM, in presence of 5 % ethanol.
The mark [14] stands for this setting: 0.5 h, in presence of 5 % ethanol.
The mark [15] stands for this setting: 1.0 h, in presence of 5 % ethanol.
[16] abbreviates: 2.0 h, in presence of 5 % ethanol.

Turning to `CC(C)c1cccc(C(C)C)c1OCO[C@@H]1O[C@H](CO)[C@@H](O)[C@H](O)[C@H]1O` [10 b], the “Enzymatic hydrolysis by Abg (in words)” value in [1] (setting [13]) was “not hydrolyzed”. Besides, the Product release in [1] (setting [14]) came out at 1.95±0.3%; in [1] (setting [15]), 1.73±0.3%; in [1] (setting [16]), 1.66±0.4%.
Consider `OC[C@H]1O[C@@H](OCOc2ccccc2)[C@H](O)[C@@H](O)[C@@H]1O` [10 a], for which the Product release in data set [1] (0.5 h) is 38.6±2.3%; in data set [1] (1.0 h), 66.0±2.0%; in data set [1] (2.0 h), 90% and 89.8±1.7%. The “Increase in conversion compared to direct conjugate Glc−Ph” value in [1] (after two hours, 200 μM, Abg) is “twenty”.
For the molecule `C[C@H]1O[C@@H](Oc2ccc([N+](=O)[O-])cc2)[C@H](O)[C@@H](O)[C@@H]1O` [6 b], the “V0 at high substrate concentration (in words)” value in data set [2] is given as “over expected rate‐enhancement”.
On the same count and under the same terms, in the case of `O=[N+]([O-])c1ccc(O[C@@H]2O[C@H](CO)[C@H](O)[C@H](O)[C@H]2O)cc1` [6 d] it was “followed a horizontal asymptote”.
As to `OC[C@H]1O[C@@H](Oc2ccccc2)[C@H](O)[C@@H](O)[C@@H]1O` [Glc−Ph, phenyl β‐D‐glucopyranoside, reference compound], the Product release in data set [1] (0.5 h) is 1.9±0.04%; in data set [1] (1.0 h), 3.0±0.30%; in data set [1] (2.0 h) it was 5.2±0.16%; in [1] (24 h), 28% and 27.7±5.5%.
Take `O=[N+]([O-])c1ccc(O[C@@H]2OC[C@@H](O)[C@H](O)[C@H]2O)cc1` [6 c, 4‐nitrophenyl xylose]: the “V0 at high substrate concentration (in words)” value in data set [2] is recorded as “over expected rate‐enhancement”.
The same measure, in the same setting: in the case of `C[C@H]1O[C@@H](Oc2ccc([N+](=O)[O-])cc2)[C@H](O)[C@@H](O)[C@H]1O` [6 e] it was “followed a horizontal asymptote”.
For `CCCCc1nc(Cl)c(CO)n1Cc1ccc(-c2ccccc2-c2nnn(CO[C@@H]3O[C@H](CO)[C@@H](O)[C@H](O)[C@H]3O)n2)cc1` [10 i], in data set [1] (setting [13]), the “Enzymatic hydrolysis by Abg (in words)” value was “hydrolyzed slower”. Besides, the Product release in [1] (setting [14]) turned out to be 16.7±4.8%; in data set [1] (setting [15]), 39.3±2.2%; in data set [1] (setting [16]), 51.3±4%; in data set [1] (24 h, in presence of 5 % ethanol) it was 74.7±10%.

B1: Agrobacterium Sp. β-glucosidase (Abg, GH1 family) (Agrobacterium sp. ATCC 21400) (protein)
chain: T1 sequence (P12614 1-459)
In the case of B1, the Michaelis constant (Km) (commonly the substrate concentration at which the rate is half of its maximum) in data set [3] was found to be 1870 µM; in data set [4], 175 µM; in data set [5], 244 µM; in data set [6] it was 233 µM; in data set [7] it was 108 µM; in data set [8] it was 202 µM. Besides, the Km turned out to be 84 µM in data set [9], 169 µM in data set [10], 3450 µM in [11] and 239 µM in data set [12]. In addition, the catalytic constant (kcat) (as a rule, the maximal rate divided by the concentration of active sites) in data set [3] stood at 3.71 s⁻¹; in [4] it was 1.03 s⁻¹; in data set [5] it was 0.580 s⁻¹; in [6], 60.3 s⁻¹; in data set [7], 38.8 s⁻¹; in data set [8], 7.18 s⁻¹. Besides, the turnover number (kcat) in data set [9] was determined as 18.4 s⁻¹; in data set [10], 29.5 s⁻¹; in [11], 63.6 s⁻¹; in [12], 0.796 s⁻¹. Besides, the catalytic efficiency (kcat/Km) (commonly the turnover number divided by the Michaelis constant) turned out to be 1980 M⁻¹ s⁻¹ in data set [3]; 5890 M⁻¹ s⁻¹ in [4]; 2380 M⁻¹ s⁻¹ in data set [5]; 259000 M⁻¹ s⁻¹ in data set [6]; 359000 M⁻¹ s⁻¹ in [7]; 35500 M⁻¹ s⁻¹ in [8]. Besides, the kcat/Km in data set [9] came to 219000 M⁻¹ s⁻¹; in data set [10], 175000 M⁻¹ s⁻¹; in [11] it was 18400 M⁻¹ s⁻¹; in [12] it was 3330 M⁻¹ s⁻¹.
